For the assay, the target named is T1, Human CD40 Ligand/TNFSF5 Protein, His, Flag Tag, active trimer (MALS verified) (human, UniProt P29965 108-261, limits assumed).
T1 construct: Bought protein, described as an active trimer; The order of the CD40L part and the tags is not known; also called CD40L protein; CD40L (Acro CDL-H52Db); not shown: His tag and Flag tag
T1 sequence (looked up): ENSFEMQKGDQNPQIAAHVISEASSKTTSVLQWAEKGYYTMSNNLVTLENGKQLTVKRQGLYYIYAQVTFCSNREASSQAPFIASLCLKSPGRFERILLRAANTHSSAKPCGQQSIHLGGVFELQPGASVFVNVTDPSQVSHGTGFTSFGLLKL
Kind of assay: bio-layer interferometry (ForteBio); antibody 100 nM, human CD40L 100 nM, 30 C. (In general: BLI is a label-free optical method that tracks binding on a fibre tip over time.)

B1: Hz47E2 (antibody, human IgG1, kappa, L234A L235A, V domains shown)
VH: EVQLVESGGGLVKPGGSLRLSCAASGFTFSDYAMSWVRQAPGKGLEWVSEISTVHTYTYYSDAVAGRFTISRDNAKNSLYLQMNSLRAEDTAVYYCARDRVLDYWGQGTLVTVSS
VL: DIVMTQSPDSLAVSLGERATINCRASESVEYYDTSLMQWYQQKPGQPPKLLIYAASNLESGVPDRFSGSGSGTDFTLTISSLQAEDVAVYYCQQTKKLPWTFGQGTKVEIKR
notes: Expressed in ExpiCHO cells; also called Antibody Hz47E2; humanized anti-CD40L antibody Hz47E2
In general, Kd refers to a measure of binding affinity in units of concentration. As to B1, the Kd was 315 pM.

B2: Hz33B9C5 (antibody, human IgG1, kappa, L234A L235A, V domains shown)
VH: QVQLVESGGGLVKPGGSLRLSCAASGFTFSDYYMYWIRQAPGKGLEWVSTISGGGTYTYSPDSVKGRFTISRDNAKNSLYLQMNSLRAEDTAVYYCARGEPGLAYWGQGTLVTVSS
VL: DIVMTQSPDSLAVSLGERATINCKASQSVDYYGDSYMHWYQQKPGQPPKLLIYASSNLESGVPDRFSGSGSGTDFTLTISSLQAEDVAVYYCQQSHEDPWTFGGGTKVEIKR
notes: Expressed in ExpiCHO cells; also called Antibody Hz33B9C5; humanized anti-CD40L antibody Hz33B9C5
In the case of B2, the Kd came to 297 pM.
